Assays:
Assay in all cases: cell-based or functional assay
EGFR = EGFR (human (endogenous in HCC413), UniProt P00533 25-1210, N-glycans (sites not given))
c-Met = c-Met (human (endogenous in HCC413), UniProt P08581 25-1390, N-glycans (sites not given))
HER3 = HER3 (human (endogenous in HCC413), UniProt P21860 20-1342, N-glycans (sites not given))
Chain of HER3 (P21860 20-1342): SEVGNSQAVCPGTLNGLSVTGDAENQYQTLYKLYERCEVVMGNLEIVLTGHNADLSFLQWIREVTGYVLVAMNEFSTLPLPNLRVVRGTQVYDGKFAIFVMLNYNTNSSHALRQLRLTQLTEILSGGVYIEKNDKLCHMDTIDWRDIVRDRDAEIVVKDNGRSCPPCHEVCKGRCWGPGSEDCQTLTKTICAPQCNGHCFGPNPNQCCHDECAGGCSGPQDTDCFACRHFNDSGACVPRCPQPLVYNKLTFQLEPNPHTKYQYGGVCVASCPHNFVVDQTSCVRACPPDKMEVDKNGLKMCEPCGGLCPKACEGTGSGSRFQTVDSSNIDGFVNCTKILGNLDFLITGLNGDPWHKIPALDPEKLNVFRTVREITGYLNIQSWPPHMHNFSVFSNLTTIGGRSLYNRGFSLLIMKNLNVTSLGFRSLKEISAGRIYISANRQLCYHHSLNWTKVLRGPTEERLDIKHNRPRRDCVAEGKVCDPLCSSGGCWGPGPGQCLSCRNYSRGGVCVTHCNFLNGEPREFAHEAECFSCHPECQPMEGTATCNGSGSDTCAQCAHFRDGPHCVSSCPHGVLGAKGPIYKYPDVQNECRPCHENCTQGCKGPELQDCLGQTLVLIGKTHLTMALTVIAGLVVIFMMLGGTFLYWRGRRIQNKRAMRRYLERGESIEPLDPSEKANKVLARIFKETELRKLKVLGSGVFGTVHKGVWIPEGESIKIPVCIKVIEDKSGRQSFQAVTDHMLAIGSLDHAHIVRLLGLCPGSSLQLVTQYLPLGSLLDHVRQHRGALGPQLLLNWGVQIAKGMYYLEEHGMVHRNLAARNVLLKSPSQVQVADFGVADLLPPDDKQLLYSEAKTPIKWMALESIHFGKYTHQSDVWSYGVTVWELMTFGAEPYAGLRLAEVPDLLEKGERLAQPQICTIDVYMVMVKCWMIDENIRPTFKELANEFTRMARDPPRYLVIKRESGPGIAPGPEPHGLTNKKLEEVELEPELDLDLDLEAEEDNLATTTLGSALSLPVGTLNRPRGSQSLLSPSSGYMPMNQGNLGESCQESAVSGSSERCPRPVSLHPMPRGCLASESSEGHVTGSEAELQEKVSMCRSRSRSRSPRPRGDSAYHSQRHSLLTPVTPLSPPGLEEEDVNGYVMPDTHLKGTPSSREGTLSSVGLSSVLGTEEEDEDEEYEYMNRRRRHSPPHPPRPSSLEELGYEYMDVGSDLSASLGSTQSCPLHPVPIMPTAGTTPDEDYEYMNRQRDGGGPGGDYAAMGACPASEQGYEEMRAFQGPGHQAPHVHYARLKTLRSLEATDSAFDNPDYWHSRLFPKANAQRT

Chain of c-Met (P08581 25-1390): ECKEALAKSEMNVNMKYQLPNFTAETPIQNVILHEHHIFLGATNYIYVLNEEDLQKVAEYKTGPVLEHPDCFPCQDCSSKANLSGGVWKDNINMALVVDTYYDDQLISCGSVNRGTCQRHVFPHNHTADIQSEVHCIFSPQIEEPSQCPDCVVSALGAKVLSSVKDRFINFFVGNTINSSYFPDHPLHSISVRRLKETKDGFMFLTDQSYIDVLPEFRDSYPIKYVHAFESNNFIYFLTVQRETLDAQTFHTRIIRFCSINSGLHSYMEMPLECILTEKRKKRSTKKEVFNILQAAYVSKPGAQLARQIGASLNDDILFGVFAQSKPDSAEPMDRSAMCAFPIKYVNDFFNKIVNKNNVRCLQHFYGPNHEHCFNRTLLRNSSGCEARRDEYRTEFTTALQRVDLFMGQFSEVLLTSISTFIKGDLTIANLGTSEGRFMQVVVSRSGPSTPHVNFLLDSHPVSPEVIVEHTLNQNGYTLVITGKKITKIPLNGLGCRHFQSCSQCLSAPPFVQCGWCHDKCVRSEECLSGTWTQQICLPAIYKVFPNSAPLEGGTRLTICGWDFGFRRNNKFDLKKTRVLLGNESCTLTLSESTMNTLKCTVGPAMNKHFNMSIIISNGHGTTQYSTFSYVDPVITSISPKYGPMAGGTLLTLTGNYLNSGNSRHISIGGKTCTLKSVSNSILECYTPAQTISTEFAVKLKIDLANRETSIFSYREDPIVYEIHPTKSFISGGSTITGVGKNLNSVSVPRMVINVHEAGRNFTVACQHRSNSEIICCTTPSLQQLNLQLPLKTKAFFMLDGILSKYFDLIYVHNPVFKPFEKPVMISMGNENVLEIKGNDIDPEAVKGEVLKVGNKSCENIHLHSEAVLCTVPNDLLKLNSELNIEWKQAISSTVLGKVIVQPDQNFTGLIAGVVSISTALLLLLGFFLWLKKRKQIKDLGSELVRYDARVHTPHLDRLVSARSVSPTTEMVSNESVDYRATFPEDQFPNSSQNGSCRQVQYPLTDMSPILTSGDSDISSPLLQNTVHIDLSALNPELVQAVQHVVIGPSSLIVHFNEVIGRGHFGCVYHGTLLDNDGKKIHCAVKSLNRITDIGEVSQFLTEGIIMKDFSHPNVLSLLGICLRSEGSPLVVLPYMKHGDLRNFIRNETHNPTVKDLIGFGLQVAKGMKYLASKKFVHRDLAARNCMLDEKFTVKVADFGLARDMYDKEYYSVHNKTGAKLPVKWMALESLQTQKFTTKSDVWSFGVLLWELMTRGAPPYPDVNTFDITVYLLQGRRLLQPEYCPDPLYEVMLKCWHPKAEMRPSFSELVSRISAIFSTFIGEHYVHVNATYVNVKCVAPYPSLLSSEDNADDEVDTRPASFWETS

decrease in phosphorylated ERK in HCC413, LZ-8 0.2 and 0.8 uM, 24 h; Western blot (EGFR): 85 to 90%
phosphorylated JNK in HCC413, LZ-8 0.2 and 0.8 uM, 24 h; Western blot (EGFR): 50%
phosphorylated c-jun in HCC413, LZ-8 0.2 and 0.8 uM, 24 h; Western blot (EGFR): 75%
decrease in phosphorylated ERK in HCC413, LZ-8 0.2 and 0.8 uM, 24 h; Western blot (c-Met): 85 to 90%
phosphorylated JNK in HCC413, LZ-8 0.2 and 0.8 uM, 24 h; Western blot (c-Met): 50%
phosphorylated c-jun in HCC413, LZ-8 0.2 and 0.8 uM, 24 h; Western blot (c-Met): 75%
decrease in phosphorylated ERK in HCC413, LZ-8 0.2 and 0.8 uM, 24 h; Western blot (HER3): 85 to 90%
phosphorylated JNK in HCC413, LZ-8 0.2 and 0.8 uM, 24 h; Western blot (HER3): 50%
phosphorylated c-jun in HCC413, LZ-8 0.2 and 0.8 uM, 24 h; Western blot (HER3): 75%
B1: Ling-Zhi-8 (natural protein, Ganoderma lucidium, UniProt P14945 1-111, looked up)
chain: MSDTALIFRLAWDVKKLSFDYTPNWGRGNPNNFIDTVTFPKVLTDKAYTYRVAVSGRNLGVKPSYAVESDGSQKVNFLEYNSGYGIADTNTIQVFVVDPDTNNDFIIAQWN

From PMC6356446, “Involvement of N-glycan in Multiple Receptor Tyrosine Kinases Targeted by Ling-Zhi-8 for Suppressing HCC413 Tumor Progression” (Cancers, 2018)
